Patent publication US20250313621A1 (NXERA PHARMA UK, published 2025)
Substitutions are numbered along the chain they refer to.

T1: Soluble PAR2 StaR (recombinant human PAR2 StaR protein in detergent, construct not stated) (human, UniProt P55085 37-377, limits assumed)
T1 construct: also called purified PAR2
T1 sequence: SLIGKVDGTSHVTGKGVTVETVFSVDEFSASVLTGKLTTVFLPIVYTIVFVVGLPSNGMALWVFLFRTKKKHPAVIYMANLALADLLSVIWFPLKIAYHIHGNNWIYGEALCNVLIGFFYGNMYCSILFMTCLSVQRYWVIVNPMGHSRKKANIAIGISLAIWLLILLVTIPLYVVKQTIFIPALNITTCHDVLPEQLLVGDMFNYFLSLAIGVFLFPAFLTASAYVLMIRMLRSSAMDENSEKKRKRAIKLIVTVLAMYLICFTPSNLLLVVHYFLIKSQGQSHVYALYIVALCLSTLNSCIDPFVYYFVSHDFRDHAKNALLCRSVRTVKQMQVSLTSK

T2: PAR2-3: P157: 1-377, glycosylated, pBacMamHisStrepII, full length (human, UniProt P55085 26-377)
T2 construct: detergent-solubilised analyte in SPR, or on infected cells in flow cytometry; also called FL-N PAR2 StaR; FL-N StaR; not shown: C-terminal StrepII and deca-histidine tags
T2 sequence: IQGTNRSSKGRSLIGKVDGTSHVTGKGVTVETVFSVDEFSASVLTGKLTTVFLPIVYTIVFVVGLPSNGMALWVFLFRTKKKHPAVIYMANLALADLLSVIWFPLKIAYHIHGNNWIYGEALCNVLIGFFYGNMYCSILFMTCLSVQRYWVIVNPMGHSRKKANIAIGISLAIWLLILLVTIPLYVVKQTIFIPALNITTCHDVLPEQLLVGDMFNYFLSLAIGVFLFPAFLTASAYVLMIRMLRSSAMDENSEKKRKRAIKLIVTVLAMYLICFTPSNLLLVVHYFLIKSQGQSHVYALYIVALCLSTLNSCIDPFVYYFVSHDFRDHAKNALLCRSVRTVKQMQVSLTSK

T3: Wildtype human PAR2 expressed on cells (human, UniProt P55085 37-397)
T3 sequence: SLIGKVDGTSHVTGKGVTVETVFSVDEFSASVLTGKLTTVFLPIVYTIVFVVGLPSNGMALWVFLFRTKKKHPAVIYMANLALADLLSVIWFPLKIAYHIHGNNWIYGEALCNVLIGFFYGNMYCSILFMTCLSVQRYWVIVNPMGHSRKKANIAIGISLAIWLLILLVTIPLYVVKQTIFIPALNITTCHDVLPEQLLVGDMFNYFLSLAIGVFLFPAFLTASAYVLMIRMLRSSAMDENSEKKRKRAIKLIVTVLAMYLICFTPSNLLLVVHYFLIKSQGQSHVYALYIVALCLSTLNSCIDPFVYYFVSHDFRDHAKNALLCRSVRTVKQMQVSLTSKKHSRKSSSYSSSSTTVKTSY

B1: Y022870 (antibody, human IgG1, lambda, V domains shown)
VH: EVQLLESGGGLVQPGGSLRLSCAASGFSFSRYAITWVRQAPGKGLEWVSTISALGLETYYAESVRGRFTISRDNSKNTLYLQMNSLRAEDTAVYYCARGFHYTHSGKRYYYPFDIWGQGTLVTVSS
VL: QSALTQPASVSGSPGQSITISCTGTSSDVGSYNLVSWYQQHPGKAPKLMIYEGSKRPSGVSNRFSGSKSGNTASLTISGLQAEDEADYYCSQYATFIAFAVFGGGTKLTVLG
notes: also called Y22870
B2: Y022877 (antibody, human IgG1, lambda, V domains shown)
VH: B1 VH with S28T, I34M, A53G, L56Q, T58A, E62G, R65K
VL: B1 VL
notes: also called Y22877
B3: Y022883 (antibody, human IgG1, lambda, V domains shown)
VH: B1 VH with S30T, T35S, T50V, A53G, L54H, L56S, T58A, Y59N, R65K
VL: B1 VL
notes: also called Y22883; Y02283

Legend:
[1] = target: T1, Soluble PAR2 StaR (recombinant human …); assay: SPR Biacore; soluble PAR2 StaR
[2] = target: T2, PAR2-3: P157: 1-377, glycosylated, …; assay: SPR (table head: Octet); IgG captured via Fc, FL-N PAR2 StaR as analyte; koff at the lower assay limit (minimum 2.00E-05 reported)
Procedure: For all eleven IgG1f_AEASS, affinities to human PAR2 were determined by SPR. The IgGs were captured via their Fc-fragment and detergent (LMNG/CHS) solubilised FL-N PAR2 StaR was used as analyte in solution. 50 mM HEPES pH 7.5, 150 mM NaCl, 0.02% LMNG was used as assay buffer. To minimize artefacts introduced by non-specific interaction of FL-N PAR2 StaR with the sensors, the CM3 sensors were used as basis to immobilize a high density of anti-hu-Fc capture antibody (BR-1008-39, GE Healthcare). IgGs were captured with relatively high levels of approximately 500 RU to achieve a higher ratio of specific to non-specific binding (while still maintaining conditions suitable for kinetic characterization). Affinities ranged from 6.5 nM to 130 pM. The koff values of the best candidates were at the lower assay limit. A minimum koff of 2.00E-05 s⁻¹ was reported (corresponding to 3% dissociation in 1500 s).

[3] = target: Rhesus PAR2 on cells (rhesus (Macaca mulatta)); assay: cell-based or functional assay
[4] = target: Cynomolgus PAR2 on BacMam-infected HEK293 cells (cynomolgus); assay: cell-based or functional assay
[5] = target: T3, Wildtype human PAR2 expressed on cells; assay: cell-based or functional assay
[6] = target: T3, Wildtype human PAR2 expressed on cells; assay: cell-based or functional assay; remark: listed apart in the source
[7] = target: T3, Wildtype human PAR2 expressed on cells; assay: cell-based or functional assay; remark: listed apart in the source
[8] = target: T1, Soluble PAR2 StaR (recombinant human …); assay: SPR Biacore T200; IgG captured, PAR2 as analyte; 25 C, 90 min dissociation
[9] = target: T1, Soluble PAR2 StaR (recombinant human …); assay: SPR Biacore T200; IgG captured, PAR2 as analyte; 25 C, 30 min dissociation
Procedure: The assay of PAR2 interaction with anti-PAR2 antibodies was carried out using a Biacore T200 instrument (GE Healthcare). Anti-human IgG antibody (Human Antibody Capture Kit, GE Healthcare) was immobilised by amine coupling in the target and reference flow cells of sensor chip CM3 (GE Healthcare) to a surface density of 2700 to 3000 resonance units (RU). Immobilisation was carried out at 25° C. in HBS-EP+buffer (GE Healthcare). The buffer was then changed to 50 mM HEPES, pH 7.5, 150 mM NaCl, 0.02% LMNG, 0.002% CHS for the PAR2-antibody interaction assay which was carried out at either 25 or 37° C. Each cycle of the assay began with antibody capture in the target flow cell to a level of 400 to 450 RU. PAR2 was then injected over target and reference flow cells at three concentrations, 5 min each, followed by 30-min dissociation. The surface was then regenerated with a solution provided in the kit (Human Antibody Capture Kit, GE Healthcare). With every antibody tested the first cycle was a blank (three injections of the running buffer) and the second a series of 50, 100, and 200 nM PAR2 injections.

Row | Binder | Kd [1] | koff [1] | kon [1] | koff [2] | IC50 (nM), SLIGKV agonist challenge, Rhesus [3] | IC50 (nM), SLIGKV agonist challenge, Cyno [4] | IC50 (nM), SLIGKV agonist challenge, Human [5] | % Max Inhibition, AP challenge, IP-One [6] | % Max Inhibition, Bovine Trypsin challenge, IP-One [7] | Kd [8] | koff [8] | kon [8] | t½ [8] | Kd [9] | koff [9] | kon [9] | t½ [9]
1 | B1 | 0.21 nM | 7e-06 s⁻¹ | 34000 M⁻¹ s⁻¹ | ≤ 2e-05 s⁻¹ | 50 nM | 88 nM | 61 nM | 203% | 10% | 0.21 nM | 7e-06 s⁻¹ | 34000 M⁻¹ s⁻¹ | 27.6 h | 0.43 nM | 1.2e-05 s⁻¹ | 28000 M⁻¹ s⁻¹ | 16.1 h
2 | B2 | 0.3 nM | 8e-06 s⁻¹ | 27000 M⁻¹ s⁻¹ | 2e-05 s⁻¹ | 47 nM | 74 nM | 52 nM | 167% | 58% | 0.3 nM | 8e-06 s⁻¹ | 27000 M⁻¹ s⁻¹ | 24.1 h | 0.23 nM | 5.1e-06 s⁻¹ | 22000 M⁻¹ s⁻¹ | 37.9 h
3 | B3 | 0.4 nM | 1.2e-05 s⁻¹ | 30000 M⁻¹ s⁻¹ | 2e-05 s⁻¹ | 43 nM | 68 nM | 54 nM | 149% | 48% | 0.4 nM | 1.2e-05 s⁻¹ | 30000 M⁻¹ s⁻¹ | 16.2 h | 0.2 nM | 8.1e-06 s⁻¹ | 40000 M⁻¹ s⁻¹ | 23.7 h
